Assay results reported in patent US20240324599A1, “PESTICIDAL ENZYMES FOR USE ON NEMATODES, INSECTS, AND MOLLUSKS” (priority 2023, published 2024).
Like-named read-outs stand apart in the source and are kept apart here.

B1: Bacillus subtilis Esterase (EstB without signal sequence) (protein, listed as Bacillus subtilis)
chain: ESVHNPVVLVHGISGASYNFFAIKNYLISQGWQSNKLYAIDFYDKTGNNLNNGPQLASYVDRVLKETGAKKVDIVAHSMGGANTLYYIKYLGGGNKIQNVVTLGGANGLVSSTALPGTDPNQKILYTSIYSLNDQIVINSLSRLQGARNIQLYGIGHIGLLSNSQVNGYIKEGLNGGGLNTN
modifications: Esterase (EstB H191 without signal sequence)
B2: Streptomyces coelicolor Chitinase F (Chi19F) (protein)
chain: ASCSSYHAWSADANYNTGDIVRYTDGKAYIAEHANPGYDPLISTWYWDPYACDGGSQTPVGNFVVSEAQFNQMFPGRNSFYTYSGLTAALSAYPGFANTGSDTTKKQEAAAFLANVSHETGGLVYIVEQNTANYPHYCDWNQPYGCPAGQAAYYGRGPIQLSWNFNYKAAGDALGIDLLGNPWLVQNDAAVAWKTGLWYWNTQSGPGTMTPHNAMVNGAGFGQTIRSINGSLECDGKNPAQVQSRVTKYQQFAQILGVSPGGNLYC
modifications: Chitinase F (Chi19F); Streptomyces coelicolor

Tests used:
[1] = tested on: SCN juveniles (SCN HG type 1.2.5.7, race 2); assay type: in vivo; conditions: for Difference in Percent Death of Nematodes for 0 to 24 Hours: 40 μL of each treatment per well
From the text: To identify an additional esterase enzyme with efficacy in reducing SCN viability, we performed an in-vitro plate assay with a Pseudomonas sp. esterase (SEQ ID NO: 248) free enzyme direct treatment. The Pseudomonas sp. esterase (SEQ ID NO: 248) was produced by fermentation in Bacillus subtilis. The enzyme was cloned into a Bacillus expression plasmid p1797 with isopropyl β-d-1-thiogalactopyranoside (IPTG) inducible expression. The plasmid was transformed into B. subtilis, and the gene sequence was confirmed. The strain was grown in rich media until an optical density (OD) 0.2-0.5 was reached. Enzyme expression was then induced by addition of […] IPTG. Following the culture harvest, cells were removed by filtration through a […] filter. The culture filtrate containing the secreted enzyme was then collected and used for further applications.
(§1) SCN eggs were obtained from SCN HG type 1.2.5.7, race 2. Eggs were rinsed 4 times with sterile water. Eggs were transferred to a 6-well plate and resuspended in 5 mL of 3 mM ZnSO4. The plate was sealed with parafilm, covered with aluminum foil to prevent light from entering the plate, and placed in a plate growth chamber at 25° C. and 80% relative humidity. After 6-7 days of incubation, an estimate of hatched SCN juveniles was obtained from the well to determine the overall number of juveniles per 10 μL. The concentration of the hatchery solution was adjusted until it consisted of 20-30 juveniles per 10 μL.
Potato dextrose agar media containing chloramphenicol and chlortetracycline was prepared and added to sterile twenty-four-well cell culture plates (1 mL per well). The plates were divided according to the pre-determined N-value for each treatment (N=12-24). Each treatment being tested was added to the agar surface within each well at a rate of 40 μL per well. Without allowing the treatments to dry, 10 μL of the prepared nematode mixture was added to the agar surface within each well.
To quantify the treatments' effects on nematode viability, the nematodes were examined under a dissecting microscope at 20× magnification. Initial (T0) values for the number of live juveniles, number of dead juveniles and total number of juveniles were recorded immediately after preparation of each well. The plates were then wrapped in parafilm around the open edge, encased in aluminum foil, and placed in secondary containment. The secondary containment was placed in a plant growth chamber at 25° C. and 80% relative humidity. At approximately 24 hours post addition of juveniles, the plates were evaluated, and the number of live juveniles, dead juveniles and total number of juveniles were recorded (T24).
The difference in percent death at T0 vs T24 was calculated by subtracting the percent dead at TO [(#dead juveniles/total #juveniles)×100] from the percent dead at T24 [(#dead juveniles/#total juveniles originally present)×100]. […] If the ANOVA indicated a significant difference existed among treatments, Tukey's HSD post hoc test was used to perform a pairwise contrast between each set of treatments. Different letters denote statistically significant results at P<0.05.
as §1, with “from” for “from SCN”, “rinsed four” for “rinsed 4”, “and 80-90%” for “and 80%”, “from each” for “from the”
Potato dextrose agar media containing chloramphenicol and chlortetracycline was prepared and added to sterile twenty-four-well cell culture plates (1 mL per well). […]

[2] = tested on: soybean cyst nematode (SCN); assay: Soil application around soybean plants: SCN cysts per gram of root tissue; assay type: in vivo, Heterodera glycines; conditions: Table 34; for Average cysts per g of root tissue: 0.5 mL/plant to soil, soybean 2830E3, 3 weeks, water control 139.8; for % Comparison to Control: water control = 100%, change in brackets
Description: To determine the efficacy of nematicidal enzymes applied to soil, a controlled environment trial was performed with 7-day old soybean plants (variety 2830E3) grown in pots. Enzymes were produced as described in Example 2. Prior to inoculation, 0.5 mL of neutral protease (SEQ ID NO: 127), esterase B (SEQ ID NO: 89), or chitinase 19F (SEQ ID NO: 182) free enzyme solution was applied to the soil around the base of each plant, or 0.5 mL of water was applied for the control (30 plants per treatment). Then, hatched SCN juveniles were applied to the soil around each plant as described in Example 2, and three weeks later, cysts per gram of root tissue was determined as described in Example 2. The data was analyzed as in Example 2 and appears in Tables 33 and 34.
To determine the efficacy of recombinant strains applied to soil, a controlled environment trial was performed as described in Example 18 above (Reduction of soybean cyst nematode reproduction by enzymes applied to soil), with the exception that a recombinant strain expressing neutral protease (SEQ ID NO: 127) was applied instead of a free enzyme solution. The recombinant strain was produced as in Example 3, and the treatment applied to soil as a whole cell broth.

[3] = tested on: SCN nematodes; assay: Foliar spray on strawberry leaf segments: nematode death; assay type: in vivo, Heterodera glycines; conditions: Table 40, 0.6% spray solution on strawberry leaf segments
Description: To determine whether a nematicidal enzyme can cause nematode death when sprayed as a foliar treatment, a trial was performed using chitinase 19F (SEQ ID NO: 182). The free enzyme was produced as described in Example 2. A SCN hatchery was set up as described in Example 2, except that no bleach sterilization step was performed. Six days later, the concentration of hatched nematodes was determined. Leaves from Quinault strawberry plants (Fragaria× ananassa) were cut into square sections and placed in the wells of a 24-well plate with the abaxial side up. Twenty-four wells were set up for each treatment. Spray solutions were created with water alone and water plus fermentation broth with chitinase 19F (SEQ ID NO: 182). For the base strain control and chitinase solutions, 0.094 mL of fermentation broth was added to 15 mL of water (0.6% solution) to model a field spray application of 8 fl oz. per acre. Treatments were added to a small spray bottle and each leaf segment was sprayed approximately 3 times. After the leaves had dried, approximately 100 nematodes were added to each leaf segment. […] The number of alive and dead nematodes were counted for each well, and the average percentage of dead nematodes were calculated for each treatment. […]

Molecule	Difference in Percent Death of Nematodes for 0 to 24 Hours ([1]; Table 28, fertilizer 3% v/v) [%]	difference in percent death over twenty-four hours, single treatment relative to the combination Esterase B + 10-34-0 fertilizer ([1]; text to Table 28) [%]	Average cysts per g of root tissue [2]	% Comparison to Control [2]	Difference in Percent Death of Nematodes for 0 to 24 Hours ([1]; Table 32, water only 4%) [%]	difference in percent death during 24 hours ([1]; text to Table 32) [%]	Average percentage of dead nematodes at 0 hours ([3]; water only 4%) [%]	Average percentage of dead nematodes at 24 hours ([3]; water only 5%) [%]
B1	3	−7	117.3 cysts per g of root tissue	84% (−16%)				
B2			95.6 cysts per g of root tissue	68% (−32%)	24	24	3	12
